From patent US20120114682A1 (GEORGIA TECH RESEARCH, published 2012)
Where no end group is shown, it is not given here.

T1: Fibrinogen fragment D (human, UniProt P02671 130-216; P02675 164-491; P02679 114-432, limits assumed)
T1 construct: domain: Fragment D (or D-domain); Made by plasmin digestion of human fibrinogen and purified on GPRPAA beads; holds the C-terminal polymerization pockets without the N-terminal knobs; immobilised by amine coupling on the SPR chip; also called D-domain
T1 sequence (looked up) 1: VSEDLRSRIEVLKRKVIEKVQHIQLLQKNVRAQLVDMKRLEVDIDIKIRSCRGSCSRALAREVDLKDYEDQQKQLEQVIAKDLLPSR
T1 sequence (looked up) 2: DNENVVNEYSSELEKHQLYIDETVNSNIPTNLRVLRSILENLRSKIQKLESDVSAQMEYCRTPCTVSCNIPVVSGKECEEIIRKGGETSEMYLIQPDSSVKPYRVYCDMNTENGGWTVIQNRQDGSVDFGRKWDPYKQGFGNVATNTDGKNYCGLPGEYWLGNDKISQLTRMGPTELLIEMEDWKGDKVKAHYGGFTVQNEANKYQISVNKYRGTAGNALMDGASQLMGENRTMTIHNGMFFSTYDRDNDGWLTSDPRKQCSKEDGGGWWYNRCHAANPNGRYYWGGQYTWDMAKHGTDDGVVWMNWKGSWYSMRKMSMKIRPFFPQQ
T1 sequence (looked up) 3: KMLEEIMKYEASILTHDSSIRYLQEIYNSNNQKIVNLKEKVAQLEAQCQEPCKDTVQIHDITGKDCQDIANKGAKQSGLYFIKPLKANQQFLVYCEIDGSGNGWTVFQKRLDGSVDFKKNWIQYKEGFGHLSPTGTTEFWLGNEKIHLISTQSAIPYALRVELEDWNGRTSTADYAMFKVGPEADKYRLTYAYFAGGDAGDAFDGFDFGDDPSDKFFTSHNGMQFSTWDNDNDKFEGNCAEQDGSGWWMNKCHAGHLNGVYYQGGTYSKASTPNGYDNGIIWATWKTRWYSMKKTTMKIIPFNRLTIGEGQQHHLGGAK


Tests used:
[1] = target: T1, Fibrinogen fragment D; assay: SPR competition with GPRP-FnIII9-10 on immobilised fragment D
[2] = target: T1, Fibrinogen fragment D; assay: affinity purification from plasmin-digested fibrinogen, elution with 1 M sodium bromide
Procedure: Human fibrinogen (# FIB3, Enzyme Research Laboratories, South Bend, Ind.) at 2 mg/mL was digested with 0.1 U/mL human plasmin (Enzyme Research Laboratories) in HEPES+Ca buffer (150 mM NaCl, 5 mM CaCl₂, 25 mM HEPES, pH 7.4) overnight at room temperature. Fragment D (or D-domain) was isolated as previously described, with slight modifications, using a polymeric resin with covalently linked GPRPAA (SEQ ID NO:10) peptide (Kostelansky M S, et al. Biochemistry 2002, 41(40):12124-12132). Briefly, the plasmin-digested fibrinogen and GPRPAA-beads were incubated for 30 min, with occasional agitation. The unbound protein fragments were removed with exhaustive washing with HEPES+Ca buffer. Fragment D was eluted using 1 M sodium bromide, 50 mM sodium acetate, pH 5.3 and exchanged back into HEPES+Ca buffer using a centrifugal filter with MWCO 10,000.

binding result [1]	binding result [2]	Binder
binds		GPRP (Synthetic (Genscript); also called A-knob tetrapeptide mimetic; soluble GPRP peptide) [GPRP tetrapeptide]
	binds	GPRPAA (not fully specified, also called GPRPAA-beads) [GPRPAA peptide covalently linked to a polymeric resin]
